Measurements as given in PMC3033577 (FEBS letters, 2004).

Experiments:
[1] = target: T1, B. stearothermophilus DnaB, main replicative ring helicase (B. stearothermophilus, UniProt Q9X4C9 1-454); test: SEC
T1 sequence (looked up): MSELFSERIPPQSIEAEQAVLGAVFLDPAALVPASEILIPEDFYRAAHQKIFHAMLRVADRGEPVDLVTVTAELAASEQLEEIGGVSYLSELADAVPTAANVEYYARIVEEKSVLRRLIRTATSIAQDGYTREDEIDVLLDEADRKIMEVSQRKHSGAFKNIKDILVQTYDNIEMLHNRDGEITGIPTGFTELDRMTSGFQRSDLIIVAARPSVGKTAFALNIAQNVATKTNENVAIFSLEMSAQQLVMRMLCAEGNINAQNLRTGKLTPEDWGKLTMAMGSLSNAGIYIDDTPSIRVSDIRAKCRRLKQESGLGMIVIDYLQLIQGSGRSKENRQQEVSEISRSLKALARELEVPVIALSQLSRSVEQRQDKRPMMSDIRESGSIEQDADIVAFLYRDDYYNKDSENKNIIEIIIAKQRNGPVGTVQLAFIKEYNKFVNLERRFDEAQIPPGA

DnaD [2] = target: T2, DnaD (Bacillus subtilis (strain 168 EMG50), UniProt P39787 1-232); test: EMSA
T2 sequence: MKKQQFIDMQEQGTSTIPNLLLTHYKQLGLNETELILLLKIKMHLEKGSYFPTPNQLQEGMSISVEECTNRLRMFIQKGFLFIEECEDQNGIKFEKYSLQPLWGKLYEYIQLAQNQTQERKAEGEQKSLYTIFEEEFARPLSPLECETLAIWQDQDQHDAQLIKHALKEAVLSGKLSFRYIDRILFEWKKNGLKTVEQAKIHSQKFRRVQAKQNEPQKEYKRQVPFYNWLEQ

DnaD [3] = target: T2, DnaD; test: sedimentation velocity ultracentrifugation

B1: B. subtilis DnaI, putative helicase loader (natural protein, UniProt P06567 1-311, looked up)
chain: MEPIGRSLQGVTGRPDFQKRLEQMKEKVMKDQDVQAFLKENEEVIDQKMIEKSLNKLYEYIEQSKNCSYCSEDENCNNLLEGYHPKLVVNGRSIDIEYYECPVKRKLDQQKKQQSLMKSMYIQQDLLGATFQQVDISDPSRLAMFQHVTDFLKSYNETGKGKGLYLYGKFGVGKTFMLAAIANELAEKEYSSMIVYVPEFVRELKNSLQDQTLEEKLNMVKTTPVLMLDDIGAESMTSWVRDEVIGTVLQHRMSQQLPTFFSSNFSPDELKHHFTYSQRGEKEEVKAARLMERILYLAAPIRLDGENRRHP
binding result [1]: binds

B2: 33mer oligonucleotide (radiolabeled) (ssDNA)
DNA: TGCATGCCTGCAGGTCGACTCTAGAGGATCCCC
binding result (DnaD [2]): binds

B3: 33mer oligonucleotide (5'-HEX) (ssDNA)
DNA: B2 DNA
binding result (DnaD [3]): binds
